Measurements taken from patent US6623738 (University of California, dated 2003).

How the values were obtained:
[1] = target: T1, rat semaphorin receptor 1 (rSR1), full length, expressed on cells (rat, UniProt Q9QWJ9 22-922); assay: binding to transfected COS-7 cells
T1 construct: also called rat SR1; p28
T1 sequence: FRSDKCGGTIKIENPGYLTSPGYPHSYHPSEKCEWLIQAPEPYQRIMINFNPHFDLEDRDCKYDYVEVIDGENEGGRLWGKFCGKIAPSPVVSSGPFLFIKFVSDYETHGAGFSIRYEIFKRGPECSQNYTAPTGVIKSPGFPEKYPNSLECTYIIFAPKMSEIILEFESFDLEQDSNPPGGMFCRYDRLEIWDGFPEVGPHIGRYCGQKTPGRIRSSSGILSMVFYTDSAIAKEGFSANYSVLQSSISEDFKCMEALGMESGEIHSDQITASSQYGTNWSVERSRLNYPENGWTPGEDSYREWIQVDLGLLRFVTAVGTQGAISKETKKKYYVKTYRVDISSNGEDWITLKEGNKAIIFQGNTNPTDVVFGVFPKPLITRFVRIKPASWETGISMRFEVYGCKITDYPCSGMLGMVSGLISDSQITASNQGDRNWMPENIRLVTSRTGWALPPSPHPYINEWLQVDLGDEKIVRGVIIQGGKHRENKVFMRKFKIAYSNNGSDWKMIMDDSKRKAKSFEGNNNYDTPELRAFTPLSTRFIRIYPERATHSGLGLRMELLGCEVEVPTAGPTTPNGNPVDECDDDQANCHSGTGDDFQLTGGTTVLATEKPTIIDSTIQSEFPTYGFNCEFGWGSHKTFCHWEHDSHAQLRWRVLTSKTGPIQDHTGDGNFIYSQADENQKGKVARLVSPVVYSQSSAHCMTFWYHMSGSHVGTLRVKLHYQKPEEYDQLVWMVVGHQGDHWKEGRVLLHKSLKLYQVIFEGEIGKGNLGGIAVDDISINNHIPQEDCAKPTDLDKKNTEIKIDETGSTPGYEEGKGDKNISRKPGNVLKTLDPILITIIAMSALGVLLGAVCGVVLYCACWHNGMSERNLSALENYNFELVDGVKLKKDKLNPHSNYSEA

[2] = target: T2, mouse neuropilin-2(a0), myc-tagged, expressed in COS-7 cells (mouse, UniProt O35375 21-931); assay: AP histochemistry on transfected COS cells
T2 construct: also called SR2(a)0; m-npn-2
T2 sequence: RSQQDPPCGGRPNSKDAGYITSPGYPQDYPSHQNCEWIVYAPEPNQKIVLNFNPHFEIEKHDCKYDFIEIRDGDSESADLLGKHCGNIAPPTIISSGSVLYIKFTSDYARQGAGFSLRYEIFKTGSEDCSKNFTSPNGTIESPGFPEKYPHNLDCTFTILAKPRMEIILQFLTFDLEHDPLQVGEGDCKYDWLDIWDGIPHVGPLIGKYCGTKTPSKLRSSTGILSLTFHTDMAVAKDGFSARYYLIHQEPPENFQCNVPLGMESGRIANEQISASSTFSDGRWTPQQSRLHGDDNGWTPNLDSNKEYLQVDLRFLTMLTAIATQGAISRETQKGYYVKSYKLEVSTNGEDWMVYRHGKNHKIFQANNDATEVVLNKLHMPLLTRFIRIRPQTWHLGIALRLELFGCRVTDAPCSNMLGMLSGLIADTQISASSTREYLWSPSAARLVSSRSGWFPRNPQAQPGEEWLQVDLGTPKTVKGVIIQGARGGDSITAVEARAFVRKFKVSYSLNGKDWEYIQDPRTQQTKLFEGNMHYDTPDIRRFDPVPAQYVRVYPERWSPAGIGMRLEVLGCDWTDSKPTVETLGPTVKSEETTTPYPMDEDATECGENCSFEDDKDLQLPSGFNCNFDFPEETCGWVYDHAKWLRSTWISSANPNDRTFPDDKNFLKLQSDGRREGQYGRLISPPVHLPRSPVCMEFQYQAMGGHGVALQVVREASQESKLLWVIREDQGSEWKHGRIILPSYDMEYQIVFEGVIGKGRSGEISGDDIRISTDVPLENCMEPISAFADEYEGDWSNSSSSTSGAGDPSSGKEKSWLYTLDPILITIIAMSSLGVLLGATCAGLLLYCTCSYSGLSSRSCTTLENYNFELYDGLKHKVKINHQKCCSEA

[3] = target: T3, mouse neuropilin-2(a5), myc-tagged, expressed in COS-7 cells (mouse, UniProt O35375 21-931); assay: AP histochemistry on transfected COS cells
T3 construct: also called a5 isoform of neuropilin-2; SR2(a)5
T3 sequence: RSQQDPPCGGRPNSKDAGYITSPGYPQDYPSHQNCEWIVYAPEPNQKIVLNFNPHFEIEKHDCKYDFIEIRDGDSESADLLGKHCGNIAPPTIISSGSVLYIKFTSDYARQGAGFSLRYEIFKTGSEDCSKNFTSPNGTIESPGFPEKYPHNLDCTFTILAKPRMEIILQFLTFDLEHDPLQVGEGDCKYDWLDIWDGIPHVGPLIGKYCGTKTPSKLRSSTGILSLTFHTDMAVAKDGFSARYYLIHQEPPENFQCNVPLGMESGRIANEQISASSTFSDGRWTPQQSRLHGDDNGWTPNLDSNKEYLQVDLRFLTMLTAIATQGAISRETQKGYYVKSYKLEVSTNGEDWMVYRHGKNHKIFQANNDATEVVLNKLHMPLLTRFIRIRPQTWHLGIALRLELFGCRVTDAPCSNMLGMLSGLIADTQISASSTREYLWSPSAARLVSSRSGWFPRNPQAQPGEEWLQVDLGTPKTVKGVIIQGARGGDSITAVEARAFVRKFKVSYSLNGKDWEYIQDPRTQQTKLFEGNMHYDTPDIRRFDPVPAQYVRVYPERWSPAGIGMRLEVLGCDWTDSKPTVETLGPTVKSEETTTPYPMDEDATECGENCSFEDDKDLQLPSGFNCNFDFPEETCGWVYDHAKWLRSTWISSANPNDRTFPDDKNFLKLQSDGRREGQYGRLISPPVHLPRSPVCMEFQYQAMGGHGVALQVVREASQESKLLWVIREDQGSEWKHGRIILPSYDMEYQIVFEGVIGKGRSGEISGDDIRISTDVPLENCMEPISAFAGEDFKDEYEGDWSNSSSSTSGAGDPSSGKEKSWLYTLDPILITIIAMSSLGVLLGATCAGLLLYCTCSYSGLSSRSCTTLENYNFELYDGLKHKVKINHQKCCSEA

[4] = target: T4, mouse neuropilin-2(a22), myc-tagged, expressed in COS-7 cells (mouse, UniProt O35375 21-931); assay: AP histochemistry on transfected COS cells
T4 construct: also called SR2(a)22
T4 sequence: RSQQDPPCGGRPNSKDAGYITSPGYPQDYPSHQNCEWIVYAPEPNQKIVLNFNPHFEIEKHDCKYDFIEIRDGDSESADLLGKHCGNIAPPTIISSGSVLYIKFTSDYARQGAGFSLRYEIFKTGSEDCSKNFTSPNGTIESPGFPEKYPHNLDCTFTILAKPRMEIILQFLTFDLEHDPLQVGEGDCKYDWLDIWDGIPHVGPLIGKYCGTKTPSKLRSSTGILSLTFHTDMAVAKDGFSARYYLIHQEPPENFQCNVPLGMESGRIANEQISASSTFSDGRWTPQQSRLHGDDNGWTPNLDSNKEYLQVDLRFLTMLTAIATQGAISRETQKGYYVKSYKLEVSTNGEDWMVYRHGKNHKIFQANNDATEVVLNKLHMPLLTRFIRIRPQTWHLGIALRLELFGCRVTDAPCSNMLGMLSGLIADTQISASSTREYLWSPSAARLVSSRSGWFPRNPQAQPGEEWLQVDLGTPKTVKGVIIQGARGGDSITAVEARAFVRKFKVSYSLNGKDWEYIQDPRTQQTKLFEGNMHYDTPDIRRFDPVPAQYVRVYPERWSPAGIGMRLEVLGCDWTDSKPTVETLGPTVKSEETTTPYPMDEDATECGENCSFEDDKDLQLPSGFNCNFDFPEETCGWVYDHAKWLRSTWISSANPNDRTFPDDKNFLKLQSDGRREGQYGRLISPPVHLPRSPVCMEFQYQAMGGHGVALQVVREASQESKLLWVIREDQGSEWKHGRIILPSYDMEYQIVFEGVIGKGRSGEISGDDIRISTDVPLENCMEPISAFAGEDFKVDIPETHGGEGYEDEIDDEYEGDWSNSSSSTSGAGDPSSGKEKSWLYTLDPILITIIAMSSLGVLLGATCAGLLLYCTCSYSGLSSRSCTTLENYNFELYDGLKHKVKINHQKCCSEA

Measured: binding result

B1: alkaline phosphatase (AP) alone (enzyme, UniProt P05187 23-511, looked up)
chain: IIPVEEENPDFWNREAAEALGAAKKLQPAQTAAKNLIIFLGDGMGVSTVTAARILKGQKKDKLGPEIPLAMDRFPYVALSKTYNVDKHVPDSGATATAYLCGVKGNFQTIGLSAAARFNQCNTTRGNEVISVMNRAKKAGKSVGVVTTTRVQHASPAGTYAHTVNRNWYSDADVPASARQEGCQDIATQLISNMDIDVILGGGRKYMFRMGTPDPEYPDDYSQGGTRLDGKNLVQEWLAKRQGARYVWNRTELMQASLDPSVTHLMGLFEPGDMKYEIHRDSTLDPSLMEMTEAALRLLSRNPRGFFLFVEGGRIDHGHHESRAYRALTETIMFDDAIERAGQLTSEEDTLSLVTADHSHVFSFGGYPLRGSSIFGLAPGKARDRKAYTVLLYGNGPGYVLKDGARPDVTESESGSPEYRQQSAVPLDEETHAGEDVAVFARGPQAHLVHGVQEQTFIAHVMAFAACLEPYTACDLAPPAGTTDAAHPG
notes: Control protein; also called alkaline phosphatase protein
no binding: all assays above
